Test results from IntAct's records for PubMed 25042851.

biological target: mlp3a_human MAP1LC3A (UniProt Q9H492)

Substance	effect of a mutation on the interaction
Toll-interacting protein (Homo sapiens) (from UniProt Q9H0E2) W133A;T134A;H135A;I136A	decreasing interaction strength
Toll-interacting protein (Homo sapiens) (from UniProt Q9H0E2) W133A;T134A;H135A;I136A;W151A;Y152A;S153A;L154A	disrupting interaction strength
Toll-interacting protein (Homo sapiens) (from UniProt Q9H0E2) W151A;Y152A;S153A;L154A	decreasing interaction strength
